Assay [1] deals with T1, human CD73 on COR-L23 lung carcinoma cells (human, UniProt P21589 27-549).
T1 sequence: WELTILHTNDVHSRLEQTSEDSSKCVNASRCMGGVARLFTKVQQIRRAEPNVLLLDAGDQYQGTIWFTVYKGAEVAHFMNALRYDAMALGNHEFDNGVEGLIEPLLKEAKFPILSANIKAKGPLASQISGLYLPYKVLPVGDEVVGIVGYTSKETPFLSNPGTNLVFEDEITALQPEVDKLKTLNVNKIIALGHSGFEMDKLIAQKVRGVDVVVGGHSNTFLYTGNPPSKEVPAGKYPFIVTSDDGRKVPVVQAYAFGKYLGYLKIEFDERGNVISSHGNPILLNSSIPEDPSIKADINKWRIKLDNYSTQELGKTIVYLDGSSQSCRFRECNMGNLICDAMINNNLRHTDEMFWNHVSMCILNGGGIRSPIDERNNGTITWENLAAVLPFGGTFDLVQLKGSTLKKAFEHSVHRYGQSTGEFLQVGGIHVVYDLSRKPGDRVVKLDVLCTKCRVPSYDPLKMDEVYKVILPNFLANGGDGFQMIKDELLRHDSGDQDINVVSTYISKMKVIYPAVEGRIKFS
The experiment in a line: cell-based or functional assay.

Assay [2] addresses T2, soluble CD73 dimer (human, UniProt P21589 27-549, limits assumed).
T2 construct: CD73 in the flow (SPR) or in solution (BLI binning); also called soluble human CD73
T2 sequence: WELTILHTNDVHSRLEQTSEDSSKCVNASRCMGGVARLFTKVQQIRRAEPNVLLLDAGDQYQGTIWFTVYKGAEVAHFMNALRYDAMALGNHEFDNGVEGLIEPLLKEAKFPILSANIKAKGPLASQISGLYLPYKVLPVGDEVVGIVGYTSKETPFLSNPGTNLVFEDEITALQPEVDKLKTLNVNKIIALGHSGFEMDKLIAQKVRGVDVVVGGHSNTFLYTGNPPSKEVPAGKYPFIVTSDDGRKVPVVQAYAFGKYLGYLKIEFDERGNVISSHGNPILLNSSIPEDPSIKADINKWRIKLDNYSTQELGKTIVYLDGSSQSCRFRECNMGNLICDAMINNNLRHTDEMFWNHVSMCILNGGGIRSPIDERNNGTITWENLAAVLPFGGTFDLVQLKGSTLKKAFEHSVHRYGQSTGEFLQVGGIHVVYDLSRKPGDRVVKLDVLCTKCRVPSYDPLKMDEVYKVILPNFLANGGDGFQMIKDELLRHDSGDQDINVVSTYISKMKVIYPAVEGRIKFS
The experiment in a line: SPR, antibody captured on Protein A chip, CD73 in flow; Langmuir 1:1 fit.
Protocol: (§1) The ability of the biparatopic antibodies to engage CD73 bivalently (e.g., at two epitopes) was determined by comparing the affinity of the biparatopic antibodies with monovalent antibodies using surface plasmon resonance (SPR). […] SPR was performed on a Biacore T200 instrument (GE Healthcare) at 25° C. using HBS-EP+ (10 mM HEPES, 150 mM NaCl, 3 mM EDTA, 0.05% (v/v) surfactant P20, pH 7.4) as running buffer and Protein A series S sensor chips (GE Healthcare). To minimize avidity effects from the binding of CD73 by separate monovalent antibodies on the chip, binding was measured at very low response (less than 10 RU). Antibodies were diluted to limit capture to between 5 and 30 RU during a 30 second injection at 10 μL/min. Multiple concentrations of CD73 (32, 12, and 3 nM) were then passed over the captured antibodies for 5 minutes at 30 μL/min. Dissociation was measured for 30 minutes. The sensor surface was then regenerated with 10 mM glycine-HCl pH 1.5 for 30 sec at 20 μL/min. Kinetic constants were calculated using a 1:1 Langmuir binding model using the Biacore T200 Evaluation software (GE Healthcare). […] In those cases, kd values of each component during dissociation were determined beginning by fitting the longer half-life component to a first-order decay defined by the kinetics after 1000 seconds. […]

The target in assay [3] is T2, soluble CD73 dimer. The experiment in a line: SPR, antibody captured on Protein A chip, CD73 in flow; Langmuir ka with major component kd.
Protocol: as §1

B1: TB19/TB38 (bispecific antibody, V domains shown)
VH 1: QEQLQESGPGLVKPSETLSLTCTVSGGSIRNNYYNWIRQPAGKGLEWIGRIYISGTTNSNPSLKSRVTMSIDTSKNQFSLKLSSVTAADTAIYYCAREHYVSGTSLDNWGQGTLVTVSS
VL 1: EIVMTQSPTTLSLSPGERATLSCRASQSVNTNYFSWYQQKPGLTPRLLIYGTSTRATGIPARFSGSGSGTDFTLTISSLQPEDFGIYYCQQDYNLPYTFGQGTYLEIK
VH 2: QVQLVESGGGVVQPGRSLRLSCAASGFTFSSYGMHWVRQAPGKGLEWVAVFWYDGSNKYYADSVKGRFTISRDNSKNTLYLQMNSLSAEDTAVYYCARAPNWDDAFDIWGQGTMVTVSS
VL 2: QTVVTQEPSFSVSPGGTVTLTCGLSSGSVSTSYYPNWYQQTPGQAPRTLIYSTNTRSSGVPDRFSGSILGNKAALTITGAQADDESDYYCVLFMGSGIWVFGGGTKLTVL
notes: Biparatopic human IgG1 made by Fab-arm exchange; also called TB19/TB38 biparatopic antibody
For B1, the “EC50 (nM) of inhibition of CD73 activity (adenosine by LC/MS)” value in assay [1] is 0.777 nM. In assay [2], this molecule had a koff of 0.000102 s⁻¹ and a kon of 184000 M⁻¹ s⁻¹. For the same molecule, in assay [3], the Kd was found to be 0.555 nM.

(Values after patent US20220403041A1 (Sanofi, published 2022).)
